Test [1] has as its target T1, Kallikrein related peptidase 2 (hK2), soluble human protein (human, UniProt P20151 19-261).
T1 construct: the stated signal peptide (residues 1-18) is left out, the pro-peptide (19-24) is kept; also called KLK2; kallikrein-2
The test can be described thus: SPR, antibody captured on anti-Fc chip, soluble hK2 injected, 1:1 Langmuir fit.
Experimental: (§1) Affinity of selected hK2 antibodies for soluble hK2 was measured by surface plasmon resonance (SPR). […] Antibodies were captured on a sensor chip coated with an anti-Fc antibody followed by injection of soluble hK2 at various concentrations and specified association and dissociation times. Post dissociation, the surface was regenerated with an appropriate solution to prepare for the next interaction. Kinetic information (on-rate and off-rate constants) were extracted by fitting sensorgrams to the 1:1 Langmuir model. Binding affinity (KD) are reported as the ratio of rate constants (koff/kₒₙ).

Test [2] deals with T1, Kallikrein related peptidase 2 (hK2), …. The test can be described thus: SPR, sentence summing up Table 14.
Experimental: as §1

The record followed here is US20250325718A1 (Janssen / Centocor, published 2025).

Broadly, the Kd is the constant that tells how readily two partners part at equilibrium. A lower Kd goes with higher affinity.

T1 sequence (P20151 19-261): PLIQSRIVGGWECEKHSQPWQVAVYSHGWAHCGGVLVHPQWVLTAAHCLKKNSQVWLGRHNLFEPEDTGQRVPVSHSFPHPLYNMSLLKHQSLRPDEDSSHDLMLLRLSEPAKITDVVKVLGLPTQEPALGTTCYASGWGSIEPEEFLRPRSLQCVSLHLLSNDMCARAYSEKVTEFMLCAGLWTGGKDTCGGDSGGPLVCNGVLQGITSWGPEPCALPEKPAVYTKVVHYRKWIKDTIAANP

B1: KL2B359 (scFv-LH-Fc) (Fc fusion)
scFv: EIVLTQSPATLSLSPGERATLSCRASESVEYFGTSLMHWYQQKPGQPPRLLIYAASNVESGIPARFSGSGSGTDFTLTISSVEPEDFAVYFCQQTRKVPYTFGGGTKVEIKGGSEGKSSGSGSESKSTGGSQVQLQESGPGLVKPSQTLSLTCTVSGNSITSDYAWNWIRQFPGKRLEWIGYISYSGSTTYNPSLKSRVTISRDTSKNQFSLKLSSVTAADTAVYYCATGYYYGSGFWGQGTLVTVSS
notes: scFv (VL-linker-VH) fused to an Fc; also called scFv20; KL2B359_LH; not shown: The hinge and Fc of the scFv-LH-Fc
The molecule B1 registered a Kd in test [1] of 0.7 to 1 nM.

B2: KL2B467 (Fab) (Fab, V domains shown)
VH: QVQLVESGGGVVQPGRSLRLSCAASGFTFSYYGMHWVRQAPGKGLEWVAFISYDGSNKYYADSVKGRFTISRDNSKNTLYLQMNSLRAEDTAVYYCAHLPYSGSYWAFDYWGQGTQVTVSS
VL: QSVLTQPPSVSVAPGQTASITCGGDNIGSKSVHWYQQKPGQAPVLVVYDNSDRPSGIPERFSGSNSGTTATLTISRVEAGDEADYYCQVWDSSSDHPVVFGGGTKVTV
On to B2, for which the figures for the Kd in test [2] and in test [1] were below 0.5 nM and 0.078 nM, respectively.

B3: KL2B53 (Fab) (Fab, V domains shown)
VH: EVQLVESGGGVVQPGRSLRLSCVASGFTFSSYDIHWVRQAPGKGLEWVAIISYDGSKKDYTDSVKGRFTISRDNSKNTLYLQMDSLRVEDSAVYSCARESGWSHYYYYGMDVWGQGTMVTVSS
VL: DIVMTQSPSSLSASVGDRVTITCRASQDISNYLAWYQQKPGKVPKFLIYAASTLHSGVPSRFSGSGSGTDFTLTISSLQPEDVATYYCQKYNSAPYTFGQGTRLEIK
Regarding B3, the Kd in test [2] was below 0.5 nM; in test [1], 0.08 nM.

B4: KL2B242 (Fab) (Fab, V domains shown)
VH: QVQLQESGPGLVKPSETLSLTCTVSGGSISSYYWSWLRQPAGSGLEWIGRLYVSGFTNYNPSLKSRVTLSLDPSRNQLSLKLSSVTAADTAVYYCAGDSGNYWGWFDPWGQGTLVTVSS
VL: SYELTQPPSVSVSPGETASITCSGDQLGENYACWYQQKPGQSPVLVIYQDSKRPSGIPERFSGSNSGNTATLTISGTQALDEADYYCQAWDNSIVVFGGGTKLTVL
As to B4, the values for the Kd in test [2] and in test [1] were below 0.5 nM and 0.04 nM, respectively.

B5: KL2B494 (Fab) (Fab, V domains shown)
VH: QVQLVESGGGLVQPGGSLRLSCAASGFTFSHYAMSWVRQAPGKGLEWVSTIGGSGGSTYYADSVKGRFTISRDNSKNTLYLQMNSLRAEDTAVYYCAKPHIVMVTALLYDGMDVWGQGTMVTVSS
VL: SSELTQPPSVSVAPGQTARITCGGNNIGSKSVHWYQQKPGQAPVLVVYDDSDRPSGIPERFSGSNSGNTATLTISRVEAGDEADYYCQVWDSSSDHVVFGGGTKLTVL
For B5, the values for the Kd in test [2] and in test [1] were below 0.5 nM and 0.053 nM, respectively.

B6: KL2B413 (scFv-LH-Fc) (Fc fusion)
scFv: EIVLTQSPSFLSASVGDRVTITCRASQGISSYLSWYQQKPGKAPKLLIYATSTLQSGVPSRFSGSGSGTEFTLTISSLQPEDFATYYCQQLNSYPRTFGQGTKVEIKGGSEGKSSGSGSESKSTGGSEVQLVESGGGLVQPGGSLRLSCAASGFTFSSYWMTWVRQAPGKGLEWVANIKQDGSERYYVDSVKGRFTISRDNAKNSLYLQMNSLRAEDTAVYYCARDQNYDILTGHYGMDVWGQGTTVTVSS
notes: scFv (VL-linker-VH) fused to an Fc; also called scFv18; KL2B413_LH; not shown: The hinge and Fc of the scFv-LH-Fc
As for B6, the Kd in test [1] turned out to be 34.3 nM.

B7: KL2B30 (Fab) (Fab, V domains shown)
VH: QVQLQESGPGLVKPSETLSLTCTVSGGSISSYYWSWIRQPPGKGLEWIGYIYYSGSTNYNPSLKSRVTISVDTSKNQFSLKLSSVTAADTAVYYCAGTTIFGVVTPNFYYGMDVWGQGTTVTVSS
VL: DIQMTQSPSFLSASVGDRVTITCRASQGISSYLAWYQQKPGKAPKFLIYAASTLQSGVPSRFSGSGSGTEFTLTISSLQPEDFATYYCQQLNSYPLTFGGGTKVEIK
Regarding B7, the equilibrium dissociation constant (Kd) in test [2] is below 0.5 nM; in test [1], 0.46 nM.
